Assay results from PMC3792040, “Nectin-3 (CD113) Interacts with Nectin-2 (CD112) to Promote Lymphocyte Transendothelial Migration” (PLoS ONE, 2013).

Target: T1, soluble Nectin-3 (Nec3-Fc) (human, UniProt Q9NQS3 58-404, biotin (the soluble copy in the in vitro binding assay: 'Biotinylated Nec3-Fc'))
T1 construct: Nectin-3 (CD113), human, recombinant soluble form fused to Fc; Probably the extracellular domain; Biotinylated as analyte in the ELISA, not biotinylated when captured in the ELISA or used on cells; also called CD113; source: COS cells, transfected, purified from supernatants on Affi-Gel protein A
Test: ELISA; Fc proteins (10^-7 M) captured on wells by goat anti-human Fc, 2 h 37 °C; free anti-Fc blocked with human immunoglobulin; biotinylated Nec3-Fc (10^-7 M) incubated 2 h at 37 °C in the absence of Ca2+; streptavidin peroxidase, ABTS
Conditions: both partners purified

T1 sequence (Q9NQS3 58-404): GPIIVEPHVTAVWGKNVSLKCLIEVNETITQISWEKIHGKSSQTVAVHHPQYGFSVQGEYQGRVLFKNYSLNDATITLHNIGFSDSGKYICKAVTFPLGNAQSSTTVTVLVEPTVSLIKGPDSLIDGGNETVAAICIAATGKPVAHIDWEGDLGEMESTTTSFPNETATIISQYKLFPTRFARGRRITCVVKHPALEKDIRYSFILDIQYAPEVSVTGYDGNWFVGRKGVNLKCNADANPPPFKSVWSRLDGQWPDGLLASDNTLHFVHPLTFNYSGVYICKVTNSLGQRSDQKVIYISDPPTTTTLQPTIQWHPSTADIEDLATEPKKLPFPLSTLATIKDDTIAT

binding result	Binder
binds	Nec2-Fc (Fc fusion, human, UniProt Q92692 32-360, looked up, Nectin-2 (CD112), human, soluble form fused to Fc; Probably the extracellular domain; also called Nectin-2; CD112; source: COS cells, transfected, purified from supernatants on Affi-Gel protein A) QDVRVQVLPEVRGQLGGTVELPCHLLPPVPGLYISLVTWQRPDAPANHQNVAAFHPKMGPSFPSPKPGSERLSFVSAKQSTGQDTEAELQDATLALHGLTVEDEGNYTCEFATFPKGSVRGMTWLRVIAKPKNQAEAQKVTFSQDPTTVALCISKEGRPPARISWLSSLDWEAKETQVSGTLAGTVTVTSRFTLVPSGRADGVTVTCKVEHESFEEPALIPVTLSVRYPPEVSISGYDDNWYLGRTDATLSCDVRSNPEPTGYDWSTTSGTFPTSAVAQGSQLVIHAVDSLFNTTFVCTVTNAVGMGRAEQVIFVRETPNTAGAGATGG
binds	PVR-Fc (Fc fusion, human, UniProt P15151 21-343, looked up, PVR (CD155, Necl-5), human, soluble form fused to Fc; Probably the extracellular domain; also called CD155; Necl-5; source: COS cells, transfected, purified from supernatants on Affi-Gel protein A) WPPPGTGDVVVQAPTQVPGFLGDSVTLPCYLQVPNMEVTHVSQLTWARHGESGSMAVFHQTQGPSYSESKRLEFVAARLGAELRNASLRMFGLRVEDEGNYTCLFVTFPQGSRSVDIWLRVLAKPQNTAEVQKVQLTGEPVPMARCVSTGGRPPAQITWHSDLGGMPNTSQVPGFLSGTVTVTSLWILVPSSQVDGKNVTCKVEHESFEKPQLLTVNLTVYYPPEVSISGYDNNWYLGQNEATLTCDARSNPEPTGYNWSTTMGPLPPFAVAQGAQLLIRPVDKPINTTLICNVTNALGARQAELTVQVKEGPPSEHSGISRN
binds	Nec1-Fc (Fc fusion, human, UniProt Q15223 31-355, looked up, Nectin-1 (CD111), human, soluble form fused to Fc; Probably the extracellular domain; also called Nectin-1; CD111; source: COS cells, transfected, purified from supernatants on Affi-Gel protein A) QVVQVNDSMYGFIGTDVVLHCSFANPLPSVKITQVTWQKSTNGSKQNVAIYNPSMGVSVLAPYRERVEFLRPSFTDGTIRLSRLELEDEGVYICEFATFPTGNRESQLNLTVMAKPTNWIEGTQAVLRAKKGQDDKVLVATCTSANGKPPSVVSWETRLKGEAEYQEIRNPNGTVTVISRYRLVPSREAHQQSLACIVNYHMDRFKESLTLNVQYEPEVTIEGFDGNWYLQRMDVKLTCKADANPPATEYHWTTLNGSLPKGVEAQNRTLFFKGPINYSLAGTYICEATNPIGTRSGQVEVNITEFPYTPSPPEHGRRAGPVPTA
